The results in this text go back to PMC9982067.

The series addresses Lys38 (UniProt position 38, …). Kind of series: kinetics. To be noted: 19°C; 50 mM/50 mM TRIS/HEPES (pH 8.3-6.3), TRIS/MES (pH 6.6, 5.8), TRIS/citric acid (pH 5.3-2.8); Transporter in the native yeast plasma membrane, turning over with 1 mM L-lactate. The authors link the 7.43 inflection to Lys 38 in the substrate-unbound state.

B1: Monocarboxylate transporter 1 (MCT1) (Homo sapiens) (protein)
chain: MPPAVGGPVGYTPPDGGWGWAVVIGAFISIGFSYAFPKSITVFFKEIEGIFHATTSEVSWISSIMLAVMYGGGPISSILVNKYGSRIVMIVGGCLSGCGLIAASFCNTVQQLYVCIGVIGGLGLAFNLNPALTMIGKYFYKRRPLANGLAMAGSPVFLCTLAPLNQVFFGIFGWRGSFLILGGLLLNCCVAGALMRPIGPKPTKAGKDKSKASLEKAGKSGVKKDLHDANTDLIGRHPKQEKRSVFQTINQFLDLTLFTHRGFLLYLSGNVIMFFGLFAPLVFLSSYGKSQHYSSEKSAFLLSILAFVDMVARPSMGLVANTKPIRPRIQYFFAASVVANGVCHMLAPLSTTYVGFCVYAGFFGFAFGWLSSVLFETLMDLVGPQRFSSAVGLVTIVECCPVLLGPPLLGRLNDMYGDYKYTYWACGVVLIISGIYLFIGMGINYRLLAKEQKANEQKKESKEEETSIDVAGKPNEVTKAAESPDQKDTDGGPKEEESPV
Usually pKa stands for the negative logarithm of the acid dissociation constant. Low readings indicate a group that gives up its proton readily, high ones a group that holds its proton tightly. B1 displayed a pKa of 7.43.
